pEC50, pKd: −log10 of the molar value.
Experiments:
[1] = target: human PD‐L1 (hPD‐L1), soluble, biotinylated (human) (UniProt Q9NZQ7); assay: SPR
[2] = target: human PD‐L1 on the surface of tumor cells (human) (UniProt Q9NZQ7); assay: flow cytometry on cells
[3] = target: human PD‐L2 (hPD‐L2), soluble (human) (UniProt Q9BQ51); assay: SPR
[4] = target: human PD‐L2 on mature dendritic cells (human) (UniProt Q9BQ51); assay: flow cytometry on cells

Substance | pKd [1] | pEC50 [2] | pKd [3] | T1/2 [3] [s] | percent reduction of the MFI of anti-PD-L2 Ab (M1H18) at 1.0 × 10^-5 mol/L L5B7 [4] [%] | koff [1] [s⁻¹] | koff [3] [s⁻¹] | T1/2 [1] [s]
hPD‐1 with the combined mutation of G124V and A132I (domain or fragment) | 9.01 |  |  |  |  |  |  | 
soluble human PD‐1 (hPD‐1) (domain or fragment) | 5.58 | 5.31 | 5.98 | 2.68 |  |  |  | 
L5B7, high‐affinity PD‐1 variant (G124S, K131Y, A132I) (designed binder) | 9.16 | 8.54 | 7.86 | 78.1 | > 40 | 0.002 | 0.0128 | 

The remaining substances from weak to strong by pKd [1], led by results:

pKd [1] | pEC50 [2] | pKd [3] | T1/2 [3] [s] | percent reduction of the MFI of anti-PD-L2 Ab (M1H18) at 1.0 × 10^-5 mol/L L5B7 [4] [%] | koff [1] [s⁻¹] | koff [3] [s⁻¹] | T1/2 [1] [s] | Substance
7.03 |  |  |  |  | 0.121 |  | 8.25 | L4C11, PD‐1 variant with a single‐site mutation from glycine to valine (G124V) (designed binder)
8.00 |  |  |  |  |  |  |  | hPD‐1 A132I point mutant (domain or fragment)
